Data: patent US20200362026A1 (INSTITUTE FOR RESEARCH IN BIOMEDICINE, published 2020)
Each block holds one binder with its values, some of them ahead of it.

Key:
FcγRIIb [1] = biological target: T1, FcγRIIb (UniProt P31994 43-310, limits assumed); experiment: flow cytometry, TZM-bl cells expressing FcγRIIb, mAb alone (w/o GM-CSF)
T1 construct: whole, on cells; also called FcgRIIb; Fcγ receptor IIb
T1 sequence (looked up): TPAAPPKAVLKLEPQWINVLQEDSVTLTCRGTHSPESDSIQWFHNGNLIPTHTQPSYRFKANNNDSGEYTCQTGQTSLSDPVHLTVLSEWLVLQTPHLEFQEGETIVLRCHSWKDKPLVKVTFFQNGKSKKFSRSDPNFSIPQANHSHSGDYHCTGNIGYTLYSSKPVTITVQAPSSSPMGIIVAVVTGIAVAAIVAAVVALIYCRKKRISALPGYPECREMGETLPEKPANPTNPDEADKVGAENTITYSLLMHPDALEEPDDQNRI
Experimental: (§1) Expression of specific FcγRs was assessed by staining TZM-b1 cells with FITC-conjugated anti-CD64 (anti-FcγRI), anti-CD32 (anti-FcγRIIa and anti-FcγRIIb) and anti-CD16 (anti-FcγRIIIa) antibodies (all from BD Pharmingen). Untrasfected and transfected TZM-b1 cells were washed with staining buffer (PBS with 10% Fetal Bovine Serum and 2 mM EDTA) and seeded in 96-well-plates at a density of 50,000 cells per well. […] The LALA versions of all antibodies and a mAb with a different specificity were included as controls. Samples were incubated at 37° C. for 30 min to allow the formation of immune complexes and then cooled down to 4° C. before adding them to TZM-b1 cells for 30 min. Cells were washed twice and stained with anti-human IgG Fcγ fragment specific F(ab′)2 fragment (Jackson ImmunoResearch). Samples were analyzed on BD FACSCanto (BD Biosciences) and median intensity fluorescence was analyzed and compared between samples.
(§2) To address the engagement of Fcγ receptors, immune complexes formed between GM-CSF and multispecific antibodies were tested for their capacity to bind to TZM-b1 cells expressing FcγRIIa and FcγRIIb receptors. Multispecific antibodies were mixed with 0.05 μg/ml of GM-CSF, or staining buffer. Samples were incubated at 37° C. for 30 min to allow the formation of immune complexes and then cooled down to 4° C. before adding them to TZM-b1 cells for 30 minutes. Cells were washed twice and stained with anti-human IgG Fcγ fragment specific F(ab′)2 fragment. Samples were analyzed on BD FACSCanto (BD Biosciences) and median intensity fluorescence was analyzed and compared between samples.

FcγRIIa [2] = biological target: T2, FcγRIIa (UniProt P12318 34-317, limits assumed); experiment: flow cytometry, TZM-bl cells expressing FcγRIIa, immune complex with low GM-CSF
T2 construct: whole, on cells; also called FcgRIIa; Fcγ receptor IIa
T2 sequence (looked up): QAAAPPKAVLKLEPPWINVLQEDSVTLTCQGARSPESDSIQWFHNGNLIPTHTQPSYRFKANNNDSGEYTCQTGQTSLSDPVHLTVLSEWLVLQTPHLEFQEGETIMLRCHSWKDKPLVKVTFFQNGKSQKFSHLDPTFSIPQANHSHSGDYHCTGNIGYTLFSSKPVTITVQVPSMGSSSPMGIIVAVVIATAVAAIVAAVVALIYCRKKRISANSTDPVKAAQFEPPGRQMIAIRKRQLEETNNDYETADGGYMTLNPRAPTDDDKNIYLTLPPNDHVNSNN
Experimental: as §1, §2

[3] = biological target: T3, human GM-CSF (granulocyte macrophage-colony stimulating factor) (human, UniProt P04141 18-144); experiment: cell-based or functional assay
T3 sequence (P04141 18-144 limits assumed): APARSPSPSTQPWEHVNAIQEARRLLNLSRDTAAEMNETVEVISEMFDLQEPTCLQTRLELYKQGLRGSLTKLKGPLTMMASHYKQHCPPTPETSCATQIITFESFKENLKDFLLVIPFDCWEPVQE

FcγRIIb [4] = biological target: T1, FcγRIIb; experiment: flow cytometry, TZM-bl FcγRIIb cells; average ratio of binding in presence and in absence of GM-CSF
Experimental: as §1, §2

FcγRIIb [5] = biological target: T1, FcγRIIb; experiment: flow cytometry, TZM-bl cells expressing FcγRIIb, immune complex with low GM-CSF
Experimental: as §1, §2

FcγRIIa [6] = biological target: T2, FcγRIIa; experiment: flow cytometry, TZM-bl cells expressing FcγRIIa, immune complex with high GM-CSF
Experimental: as §2

[7] = biological target: T3, human GM-CSF (granulocyte …); experiment: ELISA on GM-CSF
FcγRIIb [8] = biological target: T1, FcγRIIb; experiment: flow cytometry, TZM-bl cells expressing FcγRIIb, immune complex with high GM-CSF
Experimental: as §1, §2

FcγRIIa [9] = biological target: T2, FcγRIIa; experiment: flow cytometry, TZM-bl cells expressing FcγRIIa, mAb alone (w/o GM-CSF)
Experimental: as §1, §2

FcγRIIa [10] = biological target: T2, FcγRIIa; experiment: flow cytometry, TZM-bl FcγRIIa cells; average ratio of binding in presence and in absence of GM-CSF
Experimental: as §2

B2: Bs3GC1a bispecific antibody (bispecific antibody, human IgG1, kappa)
heavy: not shown
light: EIVLTQSPGTLSLSPGETAILSCRASQSVSSSLLAWYQQKPGQAPRLLIYGASNRATGIRGRFSGSGSGTDFTLTISRLEPEDFVLYYCQHYGSRVTFGQGTKLEIKRTVAAPSVFIFPPSDEQLKSGTASVVCLLNNFYPREAKVQWKVDNALQSGNSQESVTEQDSKDSTYSLSSTLTLSKADYEKHKVYACEVTHQGLSSPVTKSFNRGEC
notes: Bispecific tetravalent IgG1, construct type Bs3; specificities GCE536 + GCA7
MFI (FcγRIIb [1]): 20600 MFI
MFI (FcγRIIa [2]): 1270 MFI
IC90 less stringent conditions (50 pg/ml GM-CSF, 1,000 TF-1/well) [3]: 0.681 ng/mL
IC90 more stringent conditions (500 pg/ml GM-CSF, 1,000 TF-1/well) [3]: 4.72 ng/mL
IC90 stringent conditions (50 pg/ml GM-CSF, 10,000 TF-1/well) [3]: 0.963 ng/mL
IC90 very stringent conditions (500 pg/ml GM-CSF, 10,000 TF-1/well) [3]: 6.24 ng/mL
Average RATIO FcgRIIb (FcγRIIb [4]): 16.6 ratio
MFI (FcγRIIb [5]): 175000 MFI
MFI (FcγRIIa [6]): 65300 MFI
EC50 [7]: 74.3 ng/mL
MFI (FcγRIIb [8]): 510000 MFI
MFI (FcγRIIa [9]): 687 MFI
Average RATIO FcgRIIa (FcγRIIa [10]): 48.4 ratio

B4: Ts3GC2d trispecific antibody (antibody, human IgG1, kappa)
heavy: not shown
light: B2 light
notes: Trispecific hexavalent IgG1, construct type Ts3; specificities GCE536 + GCA7 + GCB59; also called TsGC2d; TsgC2d
MFI (FcγRIIb [1]): 29000 MFI
MFI (FcγRIIa [2]): 7900 MFI
IC90 less stringent conditions (50 pg/ml GM-CSF, 1,000 TF-1/well) [3]: 0.536 ng/mL
IC90 more stringent conditions (500 pg/ml GM-CSF, 1,000 TF-1/well) [3]: 0.795 ng/mL
IC90 stringent conditions (50 pg/ml GM-CSF, 10,000 TF-1/well) [3]: 0.413 ng/mL
IC90 very stringent conditions (500 pg/ml GM-CSF, 10,000 TF-1/well) [3]: 0.768 ng/mL
Average RATIO FcgRIIb (FcγRIIb [4]): 17.2 ratio
MFI (FcγRIIb [5]): 344000 MFI
MFI (FcγRIIa [6]): 122000 MFI
EC50 [7]: 29.6 ng/mL
MFI (FcγRIIb [8]): 652000 MFI
MFI (FcγRIIa [9]): 1310 MFI
Average RATIO FcgRIIa (FcγRIIa [10]): 49.5 ratio

Second part, the binder after the results:

MFI (FcγRIIb [1]): 67200 MFI
MFI (FcγRIIa [2]): 4130 MFI
IC90 less stringent conditions (50 pg/ml GM-CSF, 1,000 TF-1/well) [3]: 0.265 ng/mL
IC90 more stringent conditions (500 pg/ml GM-CSF, 1,000 TF-1/well) [3]: 3.17 ng/mL
IC90 stringent conditions (50 pg/ml GM-CSF, 10,000 TF-1/well) [3]: 0.281 ng/mL
IC90 very stringent conditions (500 pg/ml GM-CSF, 10,000 TF-1/well) [3]: 2.53 ng/mL
Average RATIO FcgRIIb (FcγRIIb [4]): 3.96 ratio
MFI (FcγRIIb [5]): 136000 MFI
MFI (FcγRIIa [6]): 9870 MFI
EC50 [7]: 33.5 ng/mL
MFI (FcγRIIb [8]): 397000 MFI
MFI (FcγRIIa [9]): 2850 MFI
Average RATIO FcgRIIa (FcγRIIa [10]): 2.46 ratio
B1: Ts1GC2a trispecific antibody (antibody, human IgG1, kappa)
heavy: not shown
light: B2 light
notes: Trispecific hexavalent IgG1, construct type Ts1; specificities GCE536 + GCA7 + GCB59

MFI (FcγRIIb [1]): 11800 MFI
MFI (FcγRIIa [2]): 9140 MFI
IC90 less stringent conditions (50 pg/ml GM-CSF, 1,000 TF-1/well) [3]: 2.77 ng/mL
IC90 more stringent conditions (500 pg/ml GM-CSF, 1,000 TF-1/well) [3]: 9.92 ng/mL
IC90 stringent conditions (50 pg/ml GM-CSF, 10,000 TF-1/well) [3]: 31.4 ng/mL
IC90 very stringent conditions (500 pg/ml GM-CSF, 10,000 TF-1/well) [3]: 217 ng/mL
Average RATIO FcgRIIb (FcγRIIb [4]): 77.8 ratio
MFI (FcγRIIb [5]): 398000 MFI
MFI (FcγRIIa [6]): 566000 MFI
EC50 [7]: 16.2 ng/mL
MFI (FcγRIIb [8]): 1.44e+06 MFI
MFI (FcγRIIa [9]): 662 MFI
Average RATIO FcgRIIa (FcγRIIa [10]): 435 ratio
B3: Bs1GC2a bispecific antibody (bispecific antibody, human IgG1, kappa)
heavy: not shown
light: B2 light
notes: Bispecific tetravalent IgG1, construct type Bs1; specificities GCE536 + GCB59
